Test results published in patent publication US20100227400A1 (published 2010).
Residue numbers refer to the chain shown, from its start. Numbers in names are those of the source.

Legend:
[1] = molecular target: the molecule itself; assay: analytical equilibrium ultracentrifugation, self-association
Description: The data were analyzed globally at 10K, 14K, and 20K rpm by nonlinear least-squares analysis using the ORIGIN software package supplied by Beckman. The goodness of fit was evaluated on the basis of the magnitude and randomness of the residuals, expressed as the difference between the experimental data and the theoretical curve and also by checking each of the fit parameters for physical reasonability.

[2] = molecular target: the molecule itself; assay: oligomeric state of the mutant, self-association
[3] = molecular target: the molecule itself; assay: fluorescence excitation spectra, FRET within the oligomer
Description: Absorption/Fluorescence Spectra and Extinction Coefficients—Fluorescence spectra were taken with a Fluorolog spectrofluorimeter (Spex Industries, Edison, N.J.). Absorbance spectra of proteins were taken with a Cary ITV-V is spectrophotometer. […] Corrections were included in the quantum yield calculation for the refractive index difference between ethanol and water. For extinction coefficient determination, native protein absorbance was measured with the spectrophotometer, and protein concentration was measured by the BCA method (Pierce).

[4] = molecular target: the molecule itself; assay: non-denaturing polyacrylamide gel electrophoresis, self-association
Description: The mutant proteins were prepared following standard methodology and analyzed with polyacrylamide gel electrophoresis as described (Baird et al., supra, 2000). […] This solution was centrifuged in a Beckman XL-1 analytical ultracentrifuge in PBS at 10,000 rpm, 12,000 rpm, 14,000 rpm, and 20,000 rpm.
No attempt was made to disrupt the A:B and C:D interfaces.

[5] = molecular target: the molecule itself; assay: SDS-PAGE without boiling, self-association
[6] = molecular target: the molecule itself; assay: analytical equilibrium centrifugation; model in which the tetramer dimerizes into an octamer
Description: The data were analyzed globally at 10,000, 14,000, and 20,000 rpm by nonlinear least-squares analysis using the Origin software package (Beckman). The goodness of fit was evaluated on the basis of the magnitude and randomness of the residuals, expressed as the difference between the experimental data and the theoretical curve and also by checking each of the fit parameters for physical reasonability.

[7] = molecular target: T1, DsRed fused downstream of the Gal4 DNA binding domain (pGBT9) (Discosoma sp.); assay: yeast two hybrid, negative control
T1 construct: range 1-147; also called DsRed-prey
Description: Yeast two hybrid assays were also performed. […] Alternatively, the yeast were grown on filters placed on plates lacking tryptophan and leucine to select for the bait and prey plasmids. After overnight growth, the filters were removed from the plates, frozen in liquid nitrogen, thawed, and incubated in X-gal overnight at 30° C. and two days at 4° C. to test for β-galactosidase activity (assayed by blue color development).

[8] = molecular target: the molecule itself; assay: SDS-PAGE with and without boiling, intermolecular self-association

B1: dimer2 (Discosoma variant red fluorescent protein) (other)
chain: MRGSHHHHHHGMASMTGGQQMGRDLYDDDDKDPMVASSEDVIKEFMRFKVRMEGSVNGHEFEIEGEGEGRPYEGTQTAKLKVTKGGPLPFAWDILSPQFQYGSKAYVKHPADIPDYKKLSFPEGFKWERVMNFEDGGVVTVTQDSSLQDGTLIYKVKFRGTNFPPDGPVMQKKTMGWEASTERLYPRDGVLKGEIHQALKLKDGGHYLVEFKTIYMAKKPVQLPGYYYVDTKLDITSHNEDYTIVEQYERSEGRHHLFL
notes: Protomer; forms an AC dimer
- binding result [1]: binds

B2: DsRed-I125R (other)
chain: MRGSHHHHHHGMASMTGGQQMGRDLYDDDDKDPMRSSKNVIKEFMRFKVRMEGTVNGHEFEIEGEGEGRPYEGHNTVKLKVTKGGPLPFAWDILSPQFQYGSKVYVKHPADIPDYKKLSFPEGFKWERVMNFEDGGVVTVTQDSSLQDGCFIYKVKFRGVNFPSDGPVMQKKTMGWEASTERLYPRDGVLKGEIHKALKLKDGGHYLVEFKSIYMAKKPVQLPGYYYVDSKLDITSHNEDYTIVEQYERTEGRHHLFL
notes: Protomer
- binding result [2]: binds

B3: T1 DsRed-I125R (other)
chain: B2 chain with R35A, K38E, N39D, T54S, H74T, N75Q, V77A, C150S, T250A
notes: Protomer; forms a dimer; also called T1-I125R
- binding result [2]: binds

B4: T1 (Discosoma sp. variant fast T1 red fluorescent protein) (other)
chain: B2 chain with R35A, K38E, N39D, T54S, H74T, N75Q, V77A, C150S, R158I, T250A
notes: Protomer of a tetramer; also called fast tetramer T1; DsRed-Express
- binding result [3]: binds

B5: DsRed I125K (other)
chain: B2 chain with R158K
notes: Protomer; mixture of dimer and tetramer
- binding result [4]: binds

B6: tandem DsRed (tDsRed) (other)
chain: MRGSHHHHHHGMASMTGGQQMGRDLYDDDDKDPMRSSKNVIKEFMRFKVRMEGTVNGHEFEIEGEGEGRPYEGHNTVKLKVTKGGPLPFAWDILSPQFQYGSKVYVKHPADIPDYKKLSFPEGFKWERVMNFEDGGVVTVTQDSSLQDGCFIYKVKFIGVNFPSDGPVMQKKTMGWEASTERLYPRDGVLKGEIHKALKLKDGGHYLVEFKSIYMAKKPVQLPGYYYVDSKLDITSHNEDYTIVEQYERTEGRHHLFLGSTSGSGKPGSGEGSTKGMRSSKNVIKEFMRFKVRMEGTVNGHEFEIEGEGEGRPYEGHNTVKLKVTKGGPLPFAWDILSPQFQYGSKVYVKHPADIPDYKKLSFPEGFKWERVMNFEDGGVVTVTQDSSLQDGCFIYKVKFIGVNFPSDGPVMQKKTMGWEASTERLYPRDGVLKGEIHKALKLKDGGHYLVEFKSIYMAKKPVQLPGYYYVDSKLDITSHNEDYTIVEQYERTEGRHHLFL
- binding result [5]: binds

B7: DsRed obligate tetramer (polyHis-tagged) (other)
chain: B2 chain with R158I
notes: The tetramer as a unit, for the fitted tetramer-to-octamer dissociation constant; also called tetramer of polyHis-tagged DsRed
- Kd [6]: 39 µM

B8: Gal4 activation domain alone (pGAD GH without DsRed) (other, UniProt P04386 768-881, looked up)
chain: ANFNQSGNIADSSLSFTFTNSSNGPNLITTQTNSQALSQPIASSNVHDNFMNNEITASKIDDGNNSKPLSPGWTDQTAYNAFGITTGMFNTTTMDDVYNYLFDDEDTPPNPKKE
notes: range 768-881; Negative control of the two hybrid assay
- binding result [7]: no binding

B9: tandem DsRed-I125R (tDsRed-I125R) (other)
chain: B6 chain with I158R, I401R
- binding result [8]: no binding
